From PMC7062661, “Expression and purification of the 5′-nucleotidase YitU from Bacillus species: its enzymatic properties and possible applications in biotechnology” (Applied Microbiology and Biotechnology, 2020)

How the values were obtained:
Assay in all cases: purified protein
purified protein [1] = substrate: Cc1cc2nc3c(=O)[nH]c(=O)nc-3n(C[C@H](O)[C@H](O)[C@H](O)COP(=O)(O)O)c2cc1C; conditions: 50 mM imidazole pH 7.0, 5 mM MgCl2, 30 °C
purified protein [2] = substrate: NC(=O)c1ncn([C@@H]2O[C@H](COP(=O)(O)O)[C@@H](O)[C@H]2O)c1N; conditions: 50 mM imidazole pH 7.0, 5 mM MgCl2, 30 °C, Hill plot fit (sigmoidal kinetics)
purified protein [3] = substrate: Nc1ccn([C@@H]2O[C@H](COP(=O)(O)O)[C@@H](O)[C@H]2O)c(=O)n1; conditions: 50 mM imidazole pH 7.0, 5 mM MgCl2, 30 °C
purified protein [4] = substrate: Nc1nc2c(ncn2[C@@H]2O[C@H](COP(=O)(O)O)[C@@H](O)[C@H]2O)c(=O)[nH]1; conditions: 50 mM imidazole pH 7.0, 5 mM MgCl2, 30 °C
purified protein [5] = substrate: Nc1nc2c(ncn2[C@H]2C[C@H](O)[C@@H](COP(=O)(O)O)O2)c(=O)[nH]1; conditions: 50 mM imidazole pH 7.0, 5 mM MgCl2, 30 °C
purified protein [6] = substrate: Nc1ncnc2c1ncn2[C@@H]1O[C@H](COP(=O)(O)O)[C@@H](O)[C@H]1O; conditions: 50 mM imidazole pH 7.0, 5 mM MgCl2, 30 °C
purified protein [7] = substrate: Nc1ncnc2c1ncn2[C@H]1C[C@H](O)[C@@H](COP(=O)(O)O)O1; conditions: 50 mM imidazole pH 7.0, 5 mM MgCl2, 30 °C
purified protein [8] = substrate: O=c1[nH]c(=O)c2ncn([C@@H]3O[C@H](COP(=O)(O)O)[C@@H](O)[C@H]3O)c2[nH]1; conditions: 50 mM imidazole pH 7.0, 5 mM MgCl2, 30 °C

B1: Ht-YitUBs (Bacillus subtilis subsp. subtilis str. 168) (protein)
chain: METKPYLIALDLDGTLLKDDKTISENTLHTIQRLKDDGHYVCISTGRPYRSSSMYYQQMELTTPIVNFNGAFVHHPQDDSWGRYHTSLPLDVVKQLVDISESYNVHNVLAEVIDDVYFHYHDEHLIDAFNMNTTNVTVGDLRENLGEDVTSVLIHAKEEDVPAIRSYLSDVHAEVIDHRRWAAPWHVIEIIKSGMNKAVGLQKISDYYGVPRERIIAFGDEDNDLEMLEFAGCGVAMGNGIDAVKQIANRTTATNEEDGVARFLKEYFSL
Purified protein [1]
  Km: 0.096 ± 0.015 mM
  Vmax: 43.2 µmol/min/mg
  kcat: 23 s⁻¹
  kcat/Km: 239000 M⁻¹ s⁻¹
Purified protein [2]
  K0.5: 10.19 ± 1.50 mM
  Vmax: 21.2 µmol/min/mg
  kcat: 11.3 s⁻¹
  kcat/Km: 1110 M⁻¹ s⁻¹
Purified protein [3]
  Km: 17.45 ± 1.82 mM
  Vmax: 73.7 µmol/min/mg
  kcat: 39.2 s⁻¹
  kcat/Km: 2250 M⁻¹ s⁻¹
Purified protein [4]
  Km: 7.00 ± 0.29 mM
  Vmax: 40 µmol/min/mg
  kcat: 21.3 s⁻¹
  kcat/Km: 3040 M⁻¹ s⁻¹
Purified protein [5]
  Km: 5.61 ± 0.79 mM
  Vmax: 25.9 µmol/min/mg
  kcat: 13.8 s⁻¹
  kcat/Km: 2460 M⁻¹ s⁻¹
Purified protein [6]
  Km: 14.32 ± 1.01 mM
  Vmax: 52.9 µmol/min/mg
  kcat: 28.2 s⁻¹
  kcat/Km: 1970 M⁻¹ s⁻¹
Purified protein [7]
  Km: 8.24 ± 0.42 mM
  Vmax: 49.4 µmol/min/mg
  kcat: 26.2 s⁻¹
  kcat/Km: 3190 M⁻¹ s⁻¹
Purified protein [8]
  Km: 21.74 ± 2.93 mM
  Vmax: 70.5 µmol/min/mg
  kcat: 37.5 s⁻¹
  kcat/Km: 1720 M⁻¹ s⁻¹
